Blank lines part the entries; values can stand above or below the molecule they belong to.
Assays:
[1] = test system: human hepatocellular carcinoma cell line QYC; assay: Therapeutic effect in QYC-bearing nude mice; type: in vivo; conditions: 4 mg/kg/week tail vein, after 6 weeks, FIG. 9
Experimental: Chimeric and humanized anti-SM5-1 monoclonal antibodies, and humanized and chimeric anti-CD3 antibodies were tested for their therapeutic effects in QYC bearing nude mice.
Forty female nude mice were inoculated s.c with QYC. After seven weeks, tumor masses reached 0.5 cm in diameter. These mice were randomly divided into 5 groups: 8 mice for PBS group; 8 mice for non-related antibody, chimeric anti-human CD3 mAb, 4 mg/kg; 8 mice for humanized anti-human CD3 mAb, 4 mg/kg; 8 mice for anti-human SM5-1 chimeric mAb, 4 mg/kg; 8 mice for anti-human SM5-1 humanized mAb, 4 mg/kg.
Four mAbs were diluted into final concentration 0.4 mg/ml with PBS. Mice were tail vein injected at 4 mg/kg/week through tail vein, with the control injected equal volume of PBS. According to body weight of nude mice, injection volume was about 250 ul for each nude mouse.
After 6 weeks, size of the tumor mass was measured in each mouse and statistical analyzed. […] These antibodies may function via ADCC and/or CDC.

[2] = test system: QYC cells; assay: In vitro proliferation of QYC cells with chimeric and humanized antibody (PMS:MTS, seven days); type: cell-based, human; conditions: serial antibody dilutions, FIG. 6
Experimental: The cell lines used in viability examination was QYC cells which were obtained from Shanghai International Joint Cancer Institute. The QYC cells was cultured in 25 cm^2 flask with RPMI-1640/DMEM (V:V=1:1, GIBCO) containing 10% FBS (GIBCO).
The above cells were digested with 0.05% trypsin and in 0.02% EDTA, and cell number was counted and adjusted to 6×10^4/ml in RPMI-1640/DMEM culture medium containing 10% FCS.
The assay was performed in 96-well plate. The anti-human SM5-1 humanized and chimeric antibody described above were diluted with RPMI-1640/DMEM containing 10% FCS. The antibody to be tested (20 mg/ml) was diluted to […] in serial dilution, with each dilution no more than 10-fold. The antibody were further diluted 1:2 serially with RPMI-1640/DMEM containing 10% FCS for fourteen serial concentrations in 96-well plate, leaving 100 μl/well. Cells (100 μl) were added into each well containing 200 μl various concentration of antibody or 200 μl of RPMI-1640/DMEM containing 10% FCS as control. In order to prevent edge effect of the plate, wells that were at the edge of the plate were not used for the assay but added 200 μl PBS. The plate was incubated at 37° C. with 7% CO2 for seven days.
Color developing reagent PMS:MTS (1:20) (20 μl) was added into each well of the 96-well plate. The plate without the lid was then incubated for 3 h.
The 96-well plate was read at OD490 nm. […]

[3] = target: SM5-1 antigen; assay: Affinity determination with BIAcore; type: binding, human
[4] = test system: QYC cells; assay: Antibody-dependent cell mediated cytotoxicity (ADCC); type: cell-based, human; conditions: PBL effector to target ratio 20:1, 7 h, FIG. 7
Experimental: Venous blood was taken sterilely from healthy donor and put into sterile 15 ml centrifuge tube containing 20 U/ml heparin. The solution was carefully mixed and equal volume of sterilized PBS was added to dilute the blood.
In a 15 ml centrifuge tube, 6 ml room temperature pre-warmed 100% lymphocytes isolation fluid (obtained from CACS, Cellular Biology Institute) was added. Along the tube wall of the tilted tube, 6 ml diluted anti-coagulation peripheral blood was added slowly into the tube without damaging the interface.
The tube was centrifuged at 20° C., 800 g for 30 min with brake turned off. After the centrifuge, three layers were formed. The three layers (from above to the bottom) were blood plasma layer, cell separation liquid layer, red and granular cell layer. A white frosted glass-like layer between the plasma layer and cell separation liquid layer was the layer containing lymphocytes and mononuclear cells. This white layer was taken out using a pipette and put into another 15 ml sterile centrifuge tube. PBS was added into the centrifuge tube to dilute the PBL suspension and then centrifuged at 200 g for 5 min. The pellet was washed 2 times with PBS. […]
QYC cells at the logistically growing stage were taken out from incubator. […] Cells were counted, and the concentration was adjusted to 3×10^5/ml. […]
Cytotoxicity Detection Kit by Roche's Corporation was used. […] OD was read at 490 nm.

Kd [3]: 9.31 nM
B1: humanized anti-SM5-1 antibody (ReSM5-1) (antibody, V domains shown)
VH: QVQLVQSGGGVVQPGRSLRLSCKASGYTFTSYVMHWVRQAPGKGLEWIGYIVPYNDGTKYNEKFKGRFTISSDKSKSTAFLQMDSLRPEDTAVYYCARGSRYDWYLDYWGQGTPVTVSS
VL: NIMMTQSPSSLSASVGDRVTITCKSSQSVLYSSNQKNYLAWYQQTPGKAPKLLIYWASTRESGVPSRFSGSGSGTDYTFTISSLQPEDIATYYCHQYFSSYTFGQGTKLQITR
size of the tumor mass [1]: effective in controlling the size of the tumor mass
in vitro proliferation of QYC cells [2]: significantly inhibited in vitro proliferation of QYC cells
anti-neoplasm effect via ADCC [4]: induced the apoptosis and inhibit the growth of tumor cells through ADCC pathway

Kd [3]: 3.78 nM
B2: chSM5-1: mouse-human chimeric antibody with mSM5-1 variable regions (SEQ ID NO:3, 4) and human constant regions (antibody, V domains shown)
VH: EVQLQQSGPELVKPGASVKMSCKASGYTFTSYVMHWVKQKPGQGLDWIGYIVPYNDGTKYNEKFKGKATLTSDKSSSTAYMELSRLTSEDSAVYYCVYGSRYDWYLDVWGAGTTVTVSS
VL: NIMMTQSPSSLAVSAGEKVTMSCKSSQSVLYSSNQKNYLAWYQQKPGQSPKLLIYWASTRESGVPDRFTGSGSGTDFTLTISSVQAEDLAVYYCHQYFSSYTFGGGTKLEIKR
modifications: human constant regions; Mus Musculus
size of the tumor mass [1]: effective in controlling the size of the tumor mass
in vitro proliferation of QYC cells [2]: significantly inhibited in vitro proliferation of QYC cells
anti-neoplasm effect via ADCC [4]: induced the apoptosis and inhibit the growth of tumor cells through ADCC pathway
